Assay [1] addresses Human FcγRIIIa_V158 (human).
In assay [2] the target is Human FcγRIIIa_V158 (human). The source holds these as a separate data set.

The text below walks through data of paper PMC4534130.

Like-named read-outs stand apart in the source and are kept apart here.

On to IgG1, di-sialylated variant (antibody), for which, in assay [1], the relative ADCC activity (NK cell line expressing FcγRIIIa V158; target cells expressing a receptor of the EGFR family; relative to a reference material set to 100%) turned out to be 115%.

For the substance “IgG1, hyper-galactosylated variant (antibody)”, the relative ADCC activity (NK cell line expressing FcγRIIIa V158; target cells expressing a receptor of the EGFR family; relative to a reference material set to 100%) in assay [2] turned out to be 118%.

On to “IgG1, hypo-galactosylated variant (antibody)”, for which the relative ADCC activity (NK cell line expressing FcγRIIIa V158; target cells expressing a receptor of the EGFR family; relative to a reference material set to 100%) in assay [2] is 66%.

Turning to “IgG1, mono-sialylated variant (antibody)”, the relative ADCC activity (NK cell line expressing FcγRIIIa V158; target cells expressing a receptor of the EGFR family; relative to a reference material set to 100%) in assay [1] is 104%.
